Reference: patent publication US20250002610A1 (Genmab, published 2025)

B1: IgG1-DR4-FERR (antibody, V domains shown)
VH: QVQLQESGPGLVKPSGTLSLTCAVSGGSISSYSWWSWIRQPPGKGLEWIGELYHSGSTNYNPSLKSRVTISVDKSKNQFSLKLRSVTAADTAVYYCVRGVATIDYWGQGTLVTVSS
VL: QSALTQPPSASGSPGQSVTISCTGTSSDVGGYNFVSWYQQDPGKAPKLLIYEVTKRPSGVPDRFSGSKSGNTASLTVSGLQAEDEADYYCSSYAGSNNVMFGGGTKLTVLG
notes: Bivalent monoclonal IgG1 lambda
B2: BisG1-FAPα-FERL/DR4-FERR (bispecific antibody, human IgG1, kappa, lambda)
heavy 1: EVQLLESGGGLVQPGGSPRLSCEASGFTFSSYALSWVRQAPGKGLEWVSAISGSGGGRYYADSVKGRFTISRDNSKNTLFLQMNSLRAEDTAVYYCAKEGYSSSGTYWDHWGQGTLVTVSSASTKGPSVFPLAPSSKSTSGGTAALGCLVKDYFPEPVTVSWNSGALTSGVHTFPAVLQSSGLYSLSSVVTVPSSSLGTQTYICNVNHKPSNTKVDKRVEPKSCDKTHTCPPCPAPEFERGPSVFLFPPKPKDTLMISRTPEVTCVVVDVSHEDPEVKFNWYVDGVEVHNAKTKPREEQYNSTYRVVSVLTVLHQDWLNGKEYKCKVSNKALPAPIEKTISKAKGQPREPQVYTLPPSREEMTKNQVSLTCLVKGFYPSDIAVEWESNGQPENNYKTTPPVLDSDGSFLLYSKLTVDKSRWQQGNVFSCSVMHEALHNHYTQKSLSLSPG
light 1: AIQMTQSPSSVSASVGDRVTITCRASQGVSSWLAWYQQKPGRAPKLLIYVASTLQSGVPSRFSGSGSGTDFTLTINSLQPEDFATYYCQQANSFPPTFGQGTRLEMKRTVAAPSVFIFPPSDEQLKSGTASVVCLLNNFYPREAKVQWKVDNALQSGNSQESVTEQDSKDSTYSLSSTLTLSKADYEKHKVYACEVTHQGLSSPVTKSFNRGEC
heavy 2: QVQLQESGPGLVKPSGTLSLTCAVSGGSISSYSWWSWIRQPPGKGLEWIGELYHSGSTNYNPSLKSRVTISVDKSKNQFSLKLRSVTAADTAVYYCVRGVATIDYWGQGTLVTVSSASTKGPSVFPLAPSSKSTSGGTAALGCLVKDYFPEPVTVSWNSGALTSGVHTFPAVLQSSGLYSLSSVVTVPSSSLGTQTYICNVNHKPSNTKVDKRVEPKSCDKTHTCPPCPAPEFERGPSVFLFPPKPKDTLMISRTPEVTCVVVDVSHEDPEVKFNWYVDGVEVHNAKTKPREEQYNSTYRVVSVLTVLHQDWLNGKEYKCKVSNKALPAPIEKTISKAKGQPREPQVYTLPPSREEMTKNQVSLTCLVKGFYPSDIAVEWESNGQPENNYKTTPPVLDSDGSFFLYSRLTVDKSRWQQGNVFSCSVMHEALHNHYTQKSLSLSPG
light 2: QSALTQPPSASGSPGQSVTISCTGTSSDVGGYNFVSWYQQDPGKAPKLLIYEVTKRPSGVPDRFSGSKSGNTASLTVSGLQAEDEADYYCSSYAGSNNVMFGGGTKLTVLGQPKAAPSVTLFPPSSEELQANKATLVCLISDFYPGAVTVAWKADSSPVKAGVETTTPSKQSNNKYAASSYLSLTPEQWKSHRSYSCQVTHEGSTVEKTVAPTECS
notes: Human IgG1 bispecific made by controlled Fab-arm exchange of IgG1-FAPα-FERL and IgG1-DR4-FERR; monovalent for FAPα and for DR4; also called GEN1057
B3: BisG1-FAPα-FERL/b12-FERR (bispecific antibody, human IgG1, kappa)
heavy 1: EVQLLESGGGLVQPGGSPRLSCEASGFTFSSYALSWVRQAPGKGLEWVSAISGSGGGRYYADSVKGRFTISRDNSKNTLFLQMNSLRAEDTAVYYCAKEGYSSSGTYWDHWGQGTLVTVSSASTKGPSVFPLAPSSKSTSGGTAALGCLVKDYFPEPVTVSWNSGALTSGVHTFPAVLQSSGLYSLSSVVTVPSSSLGTQTYICNVNHKPSNTKVDKRVEPKSCDKTHTCPPCPAPEFERGPSVFLFPPKPKDTLMISRTPEVTCVVVDVSHEDPEVKFNWYVDGVEVHNAKTKPREEQYNSTYRVVSVLTVLHQDWLNGKEYKCKVSNKALPAPIEKTISKAKGQPREPQVYTLPPSREEMTKNQVSLTCLVKGFYPSDIAVEWESNGQPENNYKTTPPVLDSDGSFLLYSKLTVDKSRWQQGNVFSCSVMHEALHNHYTQKSLSLSPG
light 1: AIQMTQSPSSVSASVGDRVTITCRASQGVSSWLAWYQQKPGRAPKLLIYVASTLQSGVPSRFSGSGSGTDFTLTINSLQPEDFATYYCQQANSFPPTFGQGTRLEMKRTVAAPSVFIFPPSDEQLKSGTASVVCLLNNFYPREAKVQWKVDNALQSGNSQESVTEQDSKDSTYSLSSTLTLSKADYEKHKVYACEVTHQGLSSPVTKSFNRGEC
heavy 2: QVQLVQSGAEVKKPGASVKVSCQASGYRFSNFVIHWVRQAPGQRFEWMGWINPYNGNKEFSAKFQDRVTFTADTSANTAYMELRSLRSADTAVYYCARVGPYSWDDSPQDNYYMDVWGKGTTVIVSSASTKGPSVFPLAPSSKSTSGGTAALGCLVKDYFPEPVTVSWNSGALTSGVHTFPAVLQSSGLYSLSSVVTVPSSSLGTQTYICNVNHKPSNTKVDKRVEPKSCDKTHTCPPCPAPEFERGPSVFLFPPKPKDTLMISRTPEVTCVVVDVSHEDPEVKFNWYVDGVEVHNAKTKPREEQYNSTYRVVSVLTVLHQDWLNGKEYKCKVSNKALPAPIEKTISKAKGQPREPQVYTLPPSREEMTKNQVSLTCLVKGFYPSDIAVEWESNGQPENNYKTTPPVLDSDGSFFLYSRLTVDKSRWQQGNVFSCSVMHEALHNHYTQKSLSLSPG
light 2: EIVLTQSPGTLSLSPGERATFSCRSSHSIRSRRVAWYQHKPGQAPRLVIHGVSNRASGISDRFSGSGSGTDFTLTITRVEPEDFALYYCQVYGASSYTFGQGTKLERKRTVAAPSVFIFPPSDEQLKSGTASVVCLLNNFYPREAKVQWKVDNALQSGNSQESVTEQDSKDSTYSLSSTLTLSKADYEKHKVYACEVTHQGLSSPVTKSFNRGEC

Experiments:
[1] = molecular target: T1, human DR4 with death domain deletion on ExpiCHO-S cells (human); assay: flow cytometry, ExpiCHO-S cells expressing human DR4, n = 2
Method: (§1) Binding of BisG1-FAPα-FERL/DR4-FERR, BisG1-DR4-FEAL/b12-FEAR and IgG1-DR4-FERR to DR4 of various species commonly used for nonclinical toxicology studies was assessed by flow cytometry using ExpiCHO-S cells transiently expressing DR4 from different animal species. In contrast to other species, rodents only express one DR which has highest homology with human DR5. Therefore, ExpiCHO-S cells transiently expressing rat and mouse DR protein were used instead. All DR constructs lack the intracellular DD to avoid apoptosis of transfected cells upon DR(4) activation. IgG1-b12 was used as negative control.

[2] = molecular target: T1, human DR4 with death domain deletion on …; assay: flow cytometry, ExpiCHO-S cells expressing human DR4, average ± SEM
[3] = molecular target: T1, human DR4 with death domain deletion on …; assay: flow cytometry, ExpiCHO-S cells expressing human DR4, n = 1
Method: as §1

[4] = molecular target: T2, human FAPα (Fibroblast activation protein alpha), cell surface expressed (human, UniProt Q12884 1-760); assay: flow cytometry, CAFs, n = 2
T2 construct: Endogenous on human lung fibroblasts and CAFs
T2 sequence: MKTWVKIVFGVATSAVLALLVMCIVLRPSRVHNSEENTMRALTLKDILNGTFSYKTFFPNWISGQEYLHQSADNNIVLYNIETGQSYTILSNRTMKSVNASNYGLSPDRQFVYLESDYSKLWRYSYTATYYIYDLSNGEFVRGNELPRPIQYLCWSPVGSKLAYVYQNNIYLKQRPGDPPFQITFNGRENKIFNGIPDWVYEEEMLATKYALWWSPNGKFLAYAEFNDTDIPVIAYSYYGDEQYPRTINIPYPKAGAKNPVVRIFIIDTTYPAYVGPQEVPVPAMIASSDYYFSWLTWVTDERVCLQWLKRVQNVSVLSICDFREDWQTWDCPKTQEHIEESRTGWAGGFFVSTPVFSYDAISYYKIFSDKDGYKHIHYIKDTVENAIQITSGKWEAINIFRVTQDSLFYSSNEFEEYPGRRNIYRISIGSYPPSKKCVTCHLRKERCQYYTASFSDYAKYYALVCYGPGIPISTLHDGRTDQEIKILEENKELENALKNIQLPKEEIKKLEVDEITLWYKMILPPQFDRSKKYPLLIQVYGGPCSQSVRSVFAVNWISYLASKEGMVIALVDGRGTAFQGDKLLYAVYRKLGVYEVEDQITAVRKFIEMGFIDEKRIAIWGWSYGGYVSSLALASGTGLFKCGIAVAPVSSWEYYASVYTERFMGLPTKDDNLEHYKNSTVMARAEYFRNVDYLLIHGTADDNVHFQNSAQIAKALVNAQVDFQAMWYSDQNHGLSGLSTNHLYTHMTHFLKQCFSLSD
Method: (§2) Binding of bispecific or monoclonal antibodies carrying the anti-FAPα arm derived from IgG1-FAPα-FERL (BisG1-FAPα-FERL/DR4-FERR, BisG1-FAPα-FERL/b12-FERR, and IgG1-FAPα-FERL) to cell surface expressed human FAPα was analyzed by flow cytometry using human lung fibroblasts and CAFs, which endogenously express FAPα. BisG1-b12-FERL/b12-FERR was used as negative control.
(§3) Human lung fibroblasts and CAFs (50,000 cells/well) were seeded in 96-Well round bottom plates (Greiner Bio-one, Cat #650101). Antibody dilutions were prepared using fluorescence-activated cell sorting (FACS) buffer, consisting of phosphate buffer saline (PBS, Lonza, Cat #BE17-517Q)+1% Bovine Serum Albumin (BSA, Roche, Cat #10735086001)+0.02% Sodium Azide (Bio-World, Cat #41920044-3). Plates were centrifuged, supernatant was removed, cells were resuspended in 50 μL of human Fc Block (BD, Cat #564220, diluted 1:100 in FACS buffer) and 50 μL of viability stain TO-PRO-3 Iodide (Thermo Fisher, Cat #T3605, diluted 1: 25,000 in FACS buffer), and incubated for 15 min at 4° C. Plates were washed three times with FACS buffer. […] Antibody binding to viable cells (TO-PRO-3 negative) was analyzed by flow cytometry on a FACSCelesta™ (BD biosciences) and data were processed using FlowJo_v10.8.1 (FlowJo LLC). Geomean fluorescence intensity, gMFI, was determined and visualized using GraphPad Prism.

[5] = molecular target: T2, human FAPα (Fibroblast activation …); assay: flow cytometry, CAFs, n = 3
Method: as §2, §3

Row | Binder | EC50 [1] | EC50 [2] | EC50 [3] | EC50 [4] | EC50 [5]
1 | B1 | 0.06 mg/L | 0.14 mg/L | 0.33 mg/L | – | –
2 | B2 | 0.38 mg/L | 0.5 mg/L | 1 mg/L | 0.232 mg/L | 0.211 mg/L
3 | B3 | – | – | – | 0.231 mg/L | 0.218 mg/L
